The test concerns the target T1, human amylin receptor (human, UniProt P30988 25-474; O60896 24-148, limits assumed).
T1 construct: whole, on cells; Calcitonin receptor plus RAMP-3 gives the amylin 3(a) receptor; membranes of Amylin 3(a)/CRE-luc cells were used; also called hAmylin-R; hAmylinR
T1 sequence (looked up) 1: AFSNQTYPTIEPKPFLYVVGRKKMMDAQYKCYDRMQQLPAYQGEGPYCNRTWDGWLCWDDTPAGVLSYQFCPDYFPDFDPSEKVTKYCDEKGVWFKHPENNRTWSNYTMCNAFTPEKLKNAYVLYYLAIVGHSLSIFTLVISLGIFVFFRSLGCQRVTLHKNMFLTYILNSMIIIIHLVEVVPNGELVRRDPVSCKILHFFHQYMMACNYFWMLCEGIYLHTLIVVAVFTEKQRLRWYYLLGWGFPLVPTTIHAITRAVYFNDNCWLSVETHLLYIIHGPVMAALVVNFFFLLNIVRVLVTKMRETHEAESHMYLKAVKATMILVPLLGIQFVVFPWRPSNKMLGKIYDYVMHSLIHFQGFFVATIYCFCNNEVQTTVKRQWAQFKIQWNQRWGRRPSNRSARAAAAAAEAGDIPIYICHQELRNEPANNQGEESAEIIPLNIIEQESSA
T1 sequence (looked up) 2: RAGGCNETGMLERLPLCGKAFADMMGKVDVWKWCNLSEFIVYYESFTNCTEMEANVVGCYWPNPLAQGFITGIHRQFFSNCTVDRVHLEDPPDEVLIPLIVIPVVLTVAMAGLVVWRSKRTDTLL
The experiment in a line: SPA competition binding, displacement of 125I-rat amylin from membranes with human amylin 3(a) receptor (Assay V). An outline of the steps: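 Cell membranes were prepared by homogenisation in Na-HEPES/EDTA buffer, pH 7.4, and stored at −80° C. They were then coupled to SPA beads at 35 ng/μL final and exposed to compounds in assay buffer containing CaCl2, MgCl₂, OA and Tween20. After 120 min at 25° C, plates were counted and IC₅₀ derived.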
For orientation: Loss of bound radioactivity is the signal in a displacement assay; it reports binding, not function.

Numbered stars: 1 amine (or outer) side, 2 acyl side, 3 side chain; on linkers, the order of the positions; unused ones are H or OH. Bridge positions count the residues as written; N and C are the ends. Side chains are listed from the residue outwards. Ends that are not written are not given here. * marks the point of attachment. C20 diacid = O=C(O)CCCCCCCCCCCCCCCCCCC(=O)*; γGlu = O=C(O)[C@H](CCC(=O)[*:2])N[*:1]

B1: N^ε1-[(4S)-4-carboxy-4-[[(4S)-4-carboxy-4-(19-carboxynonadecanoylamino)butanoyl]amino]butanoyl]-[Glu14,Arg17,Pro21,Pro27,Arg34,Glu35]-h-amylin (peptide)
peptide: K([γGlu-γGlu-C20 diacid])CNTATCATQRLAEFLRHSSPNFGAIPSSTNVGRETY-NH2
modifications: disulfide 2-7; N-terminus assumed
SMILES: CC[C@H](C)[C@H](NC(=O)[C@H](C)NC(=O)CNC(=O)[C@H](Cc1ccccc1)NC(=O)[C@H](CC(N)=O)NC(=O)[C@@H]1CCCN1C(=O)[C@H](CO)NC(=O)[C@H](CO)NC(=O)[C@H](Cc1c[nH]cn1)NC(=O)[C@H](CCCNC(=N)N)NC(=O)[C@H](CC(C)C)NC(=O)[C@H](Cc1ccccc1)NC(=O)[C@H](CCC(=O)O)NC(=O)[C@H](C)NC(=O)[C@H](CC(C)C)NC(=O)[C@H](CCCNC(=N)N)NC(=O)[C@H](CCC(N)=O)NC(=O)[C@@H](NC(=O)[C@H](C)NC(=O)[C@@H]1CSSC[C@H](NC(=O)[C@@H](N)CCCCNC(=O)CC[C@H](NC(=O)CC[C@H](NC(=O)CCCCCCCCCCCCCCCCCCC(=O)O)C(=O)O)C(=O)O)C(=O)N[C@@H](CC(N)=O)C(=O)N[C@@H]([C@@H](C)O)C(=O)N[C@@H](C)C(=O)N[C@@H]([C@@H](C)O)C(=O)N1)[C@@H](C)O)C(=O)N1CCC[C@H]1C(=O)N[C@@H](CO)C(=O)N[C@@H](CO)C(=O)N[C@H](C(=O)N[C@@H](CC(N)=O)C(=O)N[C@H](C(=O)NCC(=O)N[C@@H](CCCNC(=N)N)C(=O)N[C@@H](CCC(=O)O)C(=O)N[C@H](C(=O)N[C@@H](Cc1ccc(O)cc1)C(N)=O)[C@@H](C)O)C(C)C)[C@@H](C)O
notes: also called 14E, 17R, 21P, 27P, 34R, 35E
The term IC50 denotes the concentration needed to halve the response being measured. Higher therefore signals a need for much substance. In the case of B1, the IC50 is 0.957 nM.

B2: N^ε1-[(4S)-4-carboxy-4-[[(4S)-4-carboxy-4-(19-carboxynonadecanoylamino)butanoyl]amino]butanoyl]-[Glu14,Arg17,Pro21,Pro27,Pro34,Arg35]-h-amylin (peptide)
peptide: K([γGlu-γGlu-C20 diacid])CNTATCATQRLAEFLRHSSPNFGAIPSSTNVGPRTY-NH2
modifications: disulfide 2-7; N-terminus assumed
SMILES: CC[C@H](C)[C@H](NC(=O)[C@H](C)NC(=O)CNC(=O)[C@H](Cc1ccccc1)NC(=O)[C@H](CC(N)=O)NC(=O)[C@@H]1CCCN1C(=O)[C@H](CO)NC(=O)[C@H](CO)NC(=O)[C@H](Cc1c[nH]cn1)NC(=O)[C@H](CCCNC(=N)N)NC(=O)[C@H](CC(C)C)NC(=O)[C@H](Cc1ccccc1)NC(=O)[C@H](CCC(=O)O)NC(=O)[C@H](C)NC(=O)[C@H](CC(C)C)NC(=O)[C@H](CCCNC(=N)N)NC(=O)[C@H](CCC(N)=O)NC(=O)[C@@H](NC(=O)[C@H](C)NC(=O)[C@@H]1CSSC[C@H](NC(=O)[C@@H](N)CCCCNC(=O)CC[C@H](NC(=O)CC[C@H](NC(=O)CCCCCCCCCCCCCCCCCCC(=O)O)C(=O)O)C(=O)O)C(=O)N[C@@H](CC(N)=O)C(=O)N[C@@H]([C@@H](C)O)C(=O)N[C@@H](C)C(=O)N[C@@H]([C@@H](C)O)C(=O)N1)[C@@H](C)O)C(=O)N1CCC[C@H]1C(=O)N[C@@H](CO)C(=O)N[C@@H](CO)C(=O)N[C@H](C(=O)N[C@@H](CC(N)=O)C(=O)N[C@H](C(=O)NCC(=O)N1CCC[C@H]1C(=O)N[C@@H](CCCNC(=N)N)C(=O)N[C@H](C(=O)N[C@@H](Cc1ccc(O)cc1)C(N)=O)[C@@H](C)O)C(C)C)[C@@H](C)O
notes: also called 14E, 17R, 21P, 27P, 34P, 35R
B2 showed an IC50 of 0.326 nM.

B3: N^ε1-[(4S)-4-carboxy-4-[[(4S)-4-carboxy-4-(19-carboxynonadecanoylamino)butanoyl]amino]butanoyl]-[Glu14,Arg17,Pro21,Pro27,His34]-h-amylin (peptide)
peptide: K([γGlu-γGlu-C20 diacid])CNTATCATQRLAEFLRHSSPNFGAIPSSTNVGHNTY-NH2
modifications: disulfide 2-7; N-terminus assumed
SMILES: CC[C@H](C)[C@H](NC(=O)[C@H](C)NC(=O)CNC(=O)[C@H](Cc1ccccc1)NC(=O)[C@H](CC(N)=O)NC(=O)[C@@H]1CCCN1C(=O)[C@H](CO)NC(=O)[C@H](CO)NC(=O)[C@H](Cc1c[nH]cn1)NC(=O)[C@H](CCCNC(=N)N)NC(=O)[C@H](CC(C)C)NC(=O)[C@H](Cc1ccccc1)NC(=O)[C@H](CCC(=O)O)NC(=O)[C@H](C)NC(=O)[C@H](CC(C)C)NC(=O)[C@H](CCCNC(=N)N)NC(=O)[C@H](CCC(N)=O)NC(=O)[C@@H](NC(=O)[C@H](C)NC(=O)[C@@H]1CSSC[C@H](NC(=O)[C@@H](N)CCCCNC(=O)CC[C@H](NC(=O)CC[C@H](NC(=O)CCCCCCCCCCCCCCCCCCC(=O)O)C(=O)O)C(=O)O)C(=O)N[C@@H](CC(N)=O)C(=O)N[C@@H]([C@@H](C)O)C(=O)N[C@@H](C)C(=O)N[C@@H]([C@@H](C)O)C(=O)N1)[C@@H](C)O)C(=O)N1CCC[C@H]1C(=O)N[C@@H](CO)C(=O)N[C@@H](CO)C(=O)N[C@H](C(=O)N[C@@H](CC(N)=O)C(=O)N[C@H](C(=O)NCC(=O)N[C@@H](Cc1c[nH]cn1)C(=O)N[C@@H](CC(N)=O)C(=O)N[C@H](C(=O)N[C@@H](Cc1ccc(O)cc1)C(N)=O)[C@@H](C)O)C(C)C)[C@@H](C)O
notes: also called 14E, 17R, 21P, 27P, 34H
The molecule B3 displayed an IC50 of 0.633 nM.

B4: N^ε1-[(4S)-4-carboxy-4-[[(4S)-4-carboxy-4-(19-carboxynonadecanoylamino)butanoyl]amino]butanoyl]-[Glu14,Arg17,Pro21,Pro27,His34,Glu35]-h-amylin (peptide)
peptide: K([γGlu-γGlu-C20 diacid])CNTATCATQRLAEFLRHSSPNFGAIPSSTNVGHETY-NH2
modifications: disulfide 2-7; N-terminus assumed
SMILES: CC[C@H](C)[C@H](NC(=O)[C@H](C)NC(=O)CNC(=O)[C@H](Cc1ccccc1)NC(=O)[C@H](CC(N)=O)NC(=O)[C@@H]1CCCN1C(=O)[C@H](CO)NC(=O)[C@H](CO)NC(=O)[C@H](Cc1c[nH]cn1)NC(=O)[C@H](CCCNC(=N)N)NC(=O)[C@H](CC(C)C)NC(=O)[C@H](Cc1ccccc1)NC(=O)[C@H](CCC(=O)O)NC(=O)[C@H](C)NC(=O)[C@H](CC(C)C)NC(=O)[C@H](CCCNC(=N)N)NC(=O)[C@H](CCC(N)=O)NC(=O)[C@@H](NC(=O)[C@H](C)NC(=O)[C@@H]1CSSC[C@H](NC(=O)[C@@H](N)CCCCNC(=O)CC[C@H](NC(=O)CC[C@H](NC(=O)CCCCCCCCCCCCCCCCCCC(=O)O)C(=O)O)C(=O)O)C(=O)N[C@@H](CC(N)=O)C(=O)N[C@@H]([C@@H](C)O)C(=O)N[C@@H](C)C(=O)N[C@@H]([C@@H](C)O)C(=O)N1)[C@@H](C)O)C(=O)N1CCC[C@H]1C(=O)N[C@@H](CO)C(=O)N[C@@H](CO)C(=O)N[C@H](C(=O)N[C@@H](CC(N)=O)C(=O)N[C@H](C(=O)NCC(=O)N[C@@H](Cc1c[nH]cn1)C(=O)N[C@@H](CCC(=O)O)C(=O)N[C@H](C(=O)N[C@@H](Cc1ccc(O)cc1)C(N)=O)[C@@H](C)O)C(C)C)[C@@H](C)O
notes: also called 14E, 17R, 21P, 27P, 34H, 35E
Take B4: the half-maximal inhibitory concentration (IC50) worked out at 0.525 nM.

B5: N^ε1-[(4S)-4-carboxy-4-[[(4S)-4-carboxy-4-(19-carboxynonadecanoylamino)butanoyl]amino]butanoyl]-[Glu14,Arg17,Pro21,Pro27,Arg34]-h-amylin (peptide)
peptide: K([γGlu-γGlu-C20 diacid])CNTATCATQRLAEFLRHSSPNFGAIPSSTNVGRNTY-NH2
modifications: disulfide 2-7; N-terminus assumed
SMILES: CC[C@H](C)[C@H](NC(=O)[C@H](C)NC(=O)CNC(=O)[C@H](Cc1ccccc1)NC(=O)[C@H](CC(N)=O)NC(=O)[C@@H]1CCCN1C(=O)[C@H](CO)NC(=O)[C@H](CO)NC(=O)[C@H](Cc1c[nH]cn1)NC(=O)[C@H](CCCNC(=N)N)NC(=O)[C@H](CC(C)C)NC(=O)[C@H](Cc1ccccc1)NC(=O)[C@H](CCC(=O)O)NC(=O)[C@H](C)NC(=O)[C@H](CC(C)C)NC(=O)[C@H](CCCNC(=N)N)NC(=O)[C@H](CCC(N)=O)NC(=O)[C@@H](NC(=O)[C@H](C)NC(=O)[C@@H]1CSSC[C@H](NC(=O)[C@@H](N)CCCCNC(=O)CC[C@H](NC(=O)CC[C@H](NC(=O)CCCCCCCCCCCCCCCCCCC(=O)O)C(=O)O)C(=O)O)C(=O)N[C@@H](CC(N)=O)C(=O)N[C@@H]([C@@H](C)O)C(=O)N[C@@H](C)C(=O)N[C@@H]([C@@H](C)O)C(=O)N1)[C@@H](C)O)C(=O)N1CCC[C@H]1C(=O)N[C@@H](CO)C(=O)N[C@@H](CO)C(=O)N[C@H](C(=O)N[C@@H](CC(N)=O)C(=O)N[C@H](C(=O)NCC(=O)N[C@@H](CCCNC(=N)N)C(=O)N[C@@H](CC(N)=O)C(=O)N[C@H](C(=O)N[C@@H](Cc1ccc(O)cc1)C(N)=O)[C@@H](C)O)C(C)C)[C@@H](C)O
notes: also called 14E, 17R, 21P, 27P, 34R
For the molecule B5, the IC50 was 0.75 nM.

B6: N^ε1-[(4S)-4-carboxy-4-[[(4S)-4-carboxy-4-(19-carboxynonadecanoylamino)butanoyl]amino]butanoyl]-[Glu14,Arg17,Pro21,Pro27,Pro34,Glu35]-h-amylin (peptide)
peptide: K([γGlu-γGlu-C20 diacid])CNTATCATQRLAEFLRHSSPNFGAIPSSTNVGPETY-NH2
modifications: disulfide 2-7; N-terminus assumed
SMILES: CC[C@H](C)[C@H](NC(=O)[C@H](C)NC(=O)CNC(=O)[C@H](Cc1ccccc1)NC(=O)[C@H](CC(N)=O)NC(=O)[C@@H]1CCCN1C(=O)[C@H](CO)NC(=O)[C@H](CO)NC(=O)[C@H](Cc1c[nH]cn1)NC(=O)[C@H](CCCNC(=N)N)NC(=O)[C@H](CC(C)C)NC(=O)[C@H](Cc1ccccc1)NC(=O)[C@H](CCC(=O)O)NC(=O)[C@H](C)NC(=O)[C@H](CC(C)C)NC(=O)[C@H](CCCNC(=N)N)NC(=O)[C@H](CCC(N)=O)NC(=O)[C@@H](NC(=O)[C@H](C)NC(=O)[C@@H]1CSSC[C@H](NC(=O)[C@@H](N)CCCCNC(=O)CC[C@H](NC(=O)CC[C@H](NC(=O)CCCCCCCCCCCCCCCCCCC(=O)O)C(=O)O)C(=O)O)C(=O)N[C@@H](CC(N)=O)C(=O)N[C@@H]([C@@H](C)O)C(=O)N[C@@H](C)C(=O)N[C@@H]([C@@H](C)O)C(=O)N1)[C@@H](C)O)C(=O)N1CCC[C@H]1C(=O)N[C@@H](CO)C(=O)N[C@@H](CO)C(=O)N[C@H](C(=O)N[C@@H](CC(N)=O)C(=O)N[C@H](C(=O)NCC(=O)N1CCC[C@H]1C(=O)N[C@@H](CCC(=O)O)C(=O)N[C@H](C(=O)N[C@@H](Cc1ccc(O)cc1)C(N)=O)[C@@H](C)O)C(C)C)[C@@H](C)O
notes: also called 14E, 17R, 21P, 27P, 34P, 35E
Molecule B6 yielded an IC50 of 0.121 nM.

Values taken from US20140087995A1 (published 2014).
